Drawing on patent publication US20220252583A1, this text covers ΔV (V) for one molecule.

Experiment [1] concerns the target monoclonal mouse IgG1 anti human CRP antibody B08. The experiment is described as follows: swCNT-FET displacement of peptide 80715-Au nanoparticle complex from immobilised B08; CRP 100 nM in PBS.
Experiment [2] has the same target. The experiment is described as follows: swCNT-FET displacement of peptide 80715-Au nanoparticle complex from immobilised B08; CRP 800 nM in PBS.
Experiment [3] has the same target. Description: swCNT-FET displacement of peptide 80715-Au nanoparticle complex from immobilised B08; CRP 195 pM in PBS.
Experiment [4] shares this target. Description: swCNT-FET displacement of peptide 80715-Au nanoparticle complex from immobilised B08; CRP 12.5 nM in PBS.
For experiment [5] the target is unchanged. The experiment is described as follows: swCNT-FET displacement of peptide 80715-Au nanoparticle complex from immobilised B08; CRP 381 fM in PBS.
Experiment [6] shares this target. Description: swCNT-FET displacement of peptide 80715-Au nanoparticle complex from immobilised B08; CRP 3 pM in PBS.
Experiment [7] shares this target. The experiment is described as follows: swCNT-FET displacement of peptide 80715-Au nanoparticle complex from immobilised B08; CRP 1.56 nM in PBS.
The target is the same in experiment [8]. Description: swCNT-FET displacement of peptide 80715-Au nanoparticle complex from immobilised B08; CRP 24 pM in PBS.

B1: biomarker C-reactive protein (CRP) (protein, human, UniProt P02741 19-224, looked up)
chain: QTDMSRKAFVFPKESDTSYVSLKAPLTKPLKAFTVCLHFYTELSSTRGYSIFSYATKRQDNEILIFWSKDIGYSFTVGGSEILFEVPEVTVAPVHICTSWESASGIVEFWVDGKPRVRKSLKKGYTVGAEASIILGQEQDSFGGNFEGSQSLVGDIGNVNMWDFVLSPDEINTIYLGGPFSPNVLNWRALKYEVQGEVFTKPQLWP
As to B1, the ΔV (V) is -0.024 V in experiment [1]; -0.027 V in experiment [2]; -0.017 V in experiment [3]; -0.022 V in experiment [4]; -0.009 V in experiment [5]; -0.013 V in experiment [6]. Moreover, the figures for the ΔV (V) in experiment [7] and in experiment [8] were -0.02 V and -0.016 V, respectively.
